Results from patent US20140186327.

Key:
[1] = molecular target: T1, soluble tissue factor (sTF), P13726
T1 chain: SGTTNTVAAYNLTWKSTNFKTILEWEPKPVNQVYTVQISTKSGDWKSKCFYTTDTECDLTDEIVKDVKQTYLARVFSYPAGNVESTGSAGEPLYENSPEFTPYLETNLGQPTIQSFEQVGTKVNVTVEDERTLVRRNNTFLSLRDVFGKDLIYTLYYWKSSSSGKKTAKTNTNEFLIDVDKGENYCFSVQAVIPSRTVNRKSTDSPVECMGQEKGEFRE

FXa from Novagen
conversion of FVII-XTEN to FVIIa-XTEN (reducing SDS-PAGE) (FVII-XTEN_AE288): Reducing SDS-PAGE indicated a complete conversion of FVII-XTEN proteins to FVIIa-XTEN proteins
conversion of FVII-XTEN to FVIIa-XTEN (reducing SDS-PAGE) (FVII-XTEN_AE864): Reducing SDS-PAGE indicated a complete conversion of FVII-XTEN proteins to FVIIa-XTEN proteins

FXI protease
Concentration by Activity (ng/ml), aPTT based factor assay (FIX-/FXI/-XTEN_AE864): 11 ng/mL
Fraction Active (activity / ELISA) (FIX-/FXI/-XTEN_AE864): 40%
fold enhancement of clotting activity against FIX-XTEN (aPTT based factor assay) (FIX-/FXI/-XTEN_AE864): In all three cases the presence of a FXI cleavage site enhanced the clotting activity by greater than 30-fold
Concentration by Activity (ng/ml), aPTT based factor assay (FIX-KLTRAET-XTEN_AE864): 7 ng/mL
Fraction Active (activity / ELISA) (FIX-KLTRAET-XTEN_AE864): 30%
fold enhancement of clotting activity against FIX-XTEN (aPTT based factor assay) (FIX-KLTRAET-XTEN_AE864): In all three cases the presence of a FXI cleavage site enhanced the clotting activity by greater than 30-fold
Concentration by Activity (ng/ml), aPTT based factor assay (FIX-DFTRVVG-XTEN_AE864): 9 ng/mL
Fraction Active (activity / ELISA) (FIX-DFTRVVG-XTEN_AE864): 34%
fold enhancement of clotting activity against FIX-XTEN (aPTT based factor assay) (FIX-DFTRVVG-XTEN_AE864): In all three cases the presence of a FXI cleavage site enhanced the clotting activity by greater than 30-fold

B1: FVIIa-AE288 (protein)
chain: AVFVTQEEAHGVLHRRRRANAFLEELRPGSLERECKEEQCSFEEAREIFKDAERTKLFWISYSDGDQCASSPCQNGGSCKDQLQSYICFCLPAFEGRNCETHKDDQLICVNENGGCEQYCSDHTGTKRSCRCHEGYSLLADGVSCTPTVEYPCGKIPILEKRNASKPQGRIVGGKVCPKGECPWQVLLLVNGAQLCGGTLINTIWVVSAAHCFDKIKNWRNLIAVLGEHDLSEHDGDEQSRRVAQVIIPSTYVPGTTNHDIALLRLHQPVVLTDHVVPLCLPERTFSERTLAFVRFSLVSGWGQLLDRGATALELMVLNVPRLMTQDCLQQSRKVGDSPNITEYMFCAGYSDGSKDSCKGDSGGPHATHYRGTWYLTGIVSWGQGCATVGHFGVYTRVSQYIEWLQKLMRSEPRPGVLLRAPFPGSPGTSESATPESGPGSEPATSGSETPGTSESATPESGPGSEPATSGSETPGTSESATPESGPGTSTEPSEGSAPGSPAGSPTSTEEGTSESATPESGPGSEPATSGSETPGTSESATPESGPGSPAGSPTSTEEGSPAGSPTSTEEGTSTEPSEGSAPGTSESATPESGPGTSESATPESGPGTSESATPESGPGSEPATSGSETPGSEPATSGSETPGSPAGSPTSTEEGTSTEPSEGSAPGTSTEPSEGSAPGSEPATSGSETPGTSESATPESGPGTSTEPSEGSAPGSSS
soluble tissue factor (sTF) induced clotting (Stago STA-Clot FVIIa activity assay) [1]: an activity equivalent to 112 U/ml of FVIIa activity
